Experimental findings from publication PMC3124497 are described below.

Experiment [1] addresses HIV-1 JR-FL Env trimer (gp120/gp41) on LAI-chimeric molecular clone virions (HIV-1 isolate JR-FL | HIV-1 isolate LAI).
In experiment [2] the target is HIV-1 JR-CSF Env trimer (gp120/gp41) on LAI-chimeric molecular clone virions (HIV-1 isolate JR-CSF | HIV-1 isolate LAI) (UniProt P20871).
Experiment [3] deals with HIV-1 ADA Env trimer (gp120/gp41) on LAI-chimeric molecular clone virions (HIV-1 isolate ADA | HIV-1 isolate LAI).
The target is the same in experiment [4]. The experiment is described as follows: native gel or EMSA; Blue Native PAGE: virions concentrated 100-fold, 1% DDM for 20 min on ice, 4-16% NativePAGE Bis-Tris gel at RT, Western blot with mAb cocktails to gp120 or to gp41; virions untreated or first incubated 1 h at 37-57°C or up to 96 h at 37°C.
The target of experiment [5] is HIV-1 JR2 Env trimer (gp120/gp41) on LAI-chimeric molecular clone virions (HIV-1 isolate JR-FL | HIV-1 isolate LAI). Described as above.
Experiment [6] deals with HIV-1 JR-CSF Env trimer (gp120/gp41) on LAI-chimeric molecular clone virions (HIV-1 isolate JR-CSF | HIV-1 isolate LAI) (UniProt P20871). The description is as above.
For experiment [7], the target named is HIV-1 JR-FL Env trimer (gp120/gp41) on LAI-chimeric molecular clone virions (HIV-1 isolate JR-FL | HIV-1 isolate LAI). Described as above.
The target in experiment [8] is HIV-1 JR-FL SOS Env trimer (A501C, T605C) on LAI-chimeric molecular clone virions (HIV-1 isolate JR-FL | HIV-1 isolate LAI). The experiment is described as above.

For the substance “Four-domain soluble human CD4 (receptor)”, the sCD4 IC50: concentration of 4-domain soluble CD4 required to decrease HIV-1 infectivity by 50% (TZM-bl cells) in experiment [1] was found to be 1.2 µg/mL; in experiment [2] it was 1.1 µg/mL; in experiment [3], 0.17 µg/mL.
For “HIV-1 ADA Env trimer (gp120/gp41) on LAI-chimeric molecular clone virions (complex)”, the stoichiometry N in experiment [4] was 3.
For “HIV-1 JR2 Env trimer (gp120/gp41) on LAI-chimeric molecular clone virions (complex)”, in experiment [5], the stoichiometry N amounted to 3.
In experiment [6], “HIV-1 JR-CSF Env trimer (gp120/gp41) on LAI-chimeric molecular clone virions (from UniProt P20871 32-503) (complex)” registered a stoichiometry N of 3.
As for “HIV-1 JR-FL Env trimer (gp120/gp41) on LAI-chimeric molecular clone virions (complex)”, in experiment [7], the stoichiometry N worked out at 3.
In experiment [8], “HIV-1 JR-FL SOS Env trimer (A501C, T605C) on LAI-chimeric molecular clone virions (complex)” had a stoichiometry N of 3.

By stoichiometry N is commonly meant a count of units in the complex or per binding partner.
